Assay results reported in PMC2848763, “The Puf family of RNA-binding proteins in plants: phylogeny, structural modeling, activity and subcellular localization”.

T1: GST-AtPum2 PUM-HD (Arabidopsis thaliana, UniProt Q9ZW06 614-963)
T1 sequence: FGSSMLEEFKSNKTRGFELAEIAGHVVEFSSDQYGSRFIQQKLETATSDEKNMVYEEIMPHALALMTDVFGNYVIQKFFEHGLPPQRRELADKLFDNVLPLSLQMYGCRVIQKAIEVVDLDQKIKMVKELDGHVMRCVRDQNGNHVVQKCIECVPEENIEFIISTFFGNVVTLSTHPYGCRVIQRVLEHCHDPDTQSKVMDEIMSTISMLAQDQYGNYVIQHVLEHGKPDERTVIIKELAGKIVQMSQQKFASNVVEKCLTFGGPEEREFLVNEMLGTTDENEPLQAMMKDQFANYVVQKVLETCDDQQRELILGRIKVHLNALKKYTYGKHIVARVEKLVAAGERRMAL


Experiments:
GST-AtPum2 PUM-HD [1] = target: T1, GST-AtPum2 PUM-HD; assay: EMSA; estimated from free RNA; complex unstable, no accurate Kd; 10 mM HEPES pH 7.4, 1 mM EDTA, 50 mM KCl, 1 mM DTT, 0.01% BSA, 0.01% Tween 20; room temperature 1 h; 6% native gel run at 4 C; details: protein: recombinant; tags: N-terminal GST (pGEX-6P-1); label: 5' 32P; single strand, 19 nt
GST-AtPum2 PUM-HD [2] = target: T1, GST-AtPum2 PUM-HD; assay: EMSA; apparent Kd; 200 pM labelled RNA; 10 mM HEPES pH 7.4, 1 mM EDTA, 50 mM KCl, 1 mM DTT, 0.01% BSA, 0.01% Tween 20; room temperature 1 h; 6% native gel run at 4 C; details: protein: recombinant; tags: N-terminal GST (pGEX-6P-1); label: 5' 32P; single strand, 19 nt

Row | Binder | Kd (GST-AtPum2 PUM-HD [1]) [nM] | Kd (GST-AtPum2 PUM-HD [2]) [nM]
1 | CCAGAAUUUUAUAUAUUCG (ssRNA) [mutant NRE1 (G to U)] | ~354 | 
2 | CCAGAAUUGUAUAUAUUCG (ssRNA) [wildtype NRE1 (hunchback NRE1 BoxB)] |  | 10.6
